The values below come from publication PMC6741143, “A putative merR family transcription factor Slr0701 regulates mercury inducible expression of MerA in the cyanobacterium Synechocystis sp. PCC6803” (MicrobiologyOpen, 2019).

A word on the stoichiometry N: it is the number of molecules, sites or subunits per partner or assembly.

Data set [1] addresses T1, Slr0701 (6x-His, MerR family regulator) (Synechocystis sp. PCC6803, UniProt Q55963 1-137).
T1 sequence: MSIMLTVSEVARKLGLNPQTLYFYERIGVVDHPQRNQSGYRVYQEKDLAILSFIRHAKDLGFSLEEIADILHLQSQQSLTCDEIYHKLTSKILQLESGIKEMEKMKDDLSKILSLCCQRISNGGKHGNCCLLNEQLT
The data set is described as follows: SPR; 62 uM HgCl2; EMSA: 20 ul, 80 ng DNA, 0.5 or 1 ug protein, binding buffer not specified, 30 min at 25 C, 6% native PAGE in 0.5x TBE at 4 C, SYBR Green; SPR: Biacore T200, SA. The following applies: protein: recombinant; tags: 6xHis (text says C-terminal; pET-28a NheI/EcoRI clone, also written 6x-His-Slr0701); chain copies: 2; label: 5' biotin on strand 1; blunt.

Data set [2] concerns the molecule itself. The experiment in a line: SDS-PAGE without 2-mercaptoethanol; purified 6x-His-Slr0701 on 15% SDS-PAGE under semi-denaturing condition (without 2-mercaptoethanol), compared with a sample with 2-mercaptoethanol; monomer to dimer.

B1: Pslr0701 50-bp oligonucleotide duplex (dsDNA)
DNA 1: TACTACAATATATTCCCTATACTTAGGTATAAGGTTGTAGGTTGATATAG
DNA 2: CTATATCAACCTACAACCTTATACCTAAGTATAGGGAATATATTGTAGTA
Regarding B1, the binding signal in data set [1] is ~1000 fold higher affinity with HgCl2 than without.

B2: 6x-His-Slr0701 protein (putative MerR family transcriptional regulator Slr0701) (natural protein, Synechocystis sp. PCC6803, UniProt Q55963 1-137, looked up)
chain: T1 sequence
notes: Slr0701, putative MerR family transcriptional regulator of Synechocystis sp; PCC6803; the slr0701 ORF amplified with primers from the start codon (GTG) to the stop codon and cloned into pET-28a(+) at NheI and EcoRI; not shown: His6, C-terminal, kept
Turning to B2, the “stoichiometry N” value in data set [2] was 2.
